Substrate: NC(=O)c1ncn([C@@H]2O[C@H](COP(=O)(O)O)[C@@H](O)[C@H]2O)c1N
Conditions: Homo sapiens
Description: Activity of human wild-type ATIC assessed as IMPCH activity

B1: Bifunctional purine biosynthesis protein ATIC (Homo sapiens), P31939 (protein)
chain: MAPGQLALFSVSDKTGLVEFARNLTALGLNLVASGGTAKALRDAGLAVRDVSELTGFPEMLGGRVKTLHPAVHAGILARNIPEDNADMARLDFNLIRVVACNLYPFVKTVASPGVTVEEAVEQIDIGGVTLLRAAAKNHARVTVVCEPEDYVVVSTEMQSSESKDTSLETRRQLALKAFTHTAQYDEAISDYFRKQYSKGVSQMPLRYGMNPHQTPAQLYTLQPKLPITVLNGAPGFINLCDALNAWQLVKELKEALGIPAAASFKHVSPAGAAVGIPLSEDEAKVCMVYDLYKTLTPISAAYARARGADRMSSFGDFVALSDVCDVPTAKIISREVSDGIIAPGYEEEALTILSKKKNGNYCVLQMDQSYKPDENEVRTLFGLHLSQKRNNGVVDKSLFSNVVTKNKDLPESALRDLIVATIAVKYTQSNSVCYAKNGQVIGIGAGQQSRIHCTRLAGDKANYWWLRHHPQVLSMKFKTGVKRAEISNAIDQYVTGTIGEDEDLIKWKALFEEVPELLTEAEKKEWVEKLTEVSISSDAFFPFRDNVDRAKRSGVAYIAAPSGSAADKVVIEACDELGIILAHTNLRLFHH
  Km: 1.9 µM
